Residue numbers refer to the chain shown, from its start.
B1: ADI-40327 (antibody, V domains shown)
VH: QVQLQESGPGLVKPSETLSLTCAVSGYSISSGYYWGWIRQPPGKGLEWIGSIYHSGNTYYRPSLKSRVTISVDTSKNQFSLKLSSVTAADTAVYYCARGKGGSWTAFGPWGQGTLVTVSS
VL: DIQMTQSPSSLSASVGDRVTITCRASQSISSFLNWYQQKPGKAPKLLISAASSLQSGVPSRFSGSGSGTDFTLTISSLQPEDFATYYCQQGHSTPPTFGGGTKVEIK
B2: ADI-40352 (antibody, V domains shown)
VH: QLQLQESGPGLVKPSETLSLTCTVSGGSISSSSYAWGWIRQPPGKRLEWIGSIYYTGSTYYNPSLKSRVTISVDTSKNQFSLKLSSVTAADTAVYYCLRGHRRDYIAFDIWGQGTMVTVSS
VL: DIQMTQSPSSLSASVGDRVTITCRASQSISSYLNWYQQKPGKAPKLLIYAASSLQSGVPSRFSGSGSGTDFTLTISSLQPEDFATYYCQQSHNLPTFGGGTKVEIK
B3: ADI-40360 (antibody, V domains shown)
VH: B2 VH with L98V
VL: B2 VL
B4: ADI-35281 (antibody, V domains shown)
VH: EVKLEQSGGGLVQPKGSLKLSCVASGFTFNAYAMNWVRQAPGQGLEWVARIRSKSNNYATYYAASVKDRFTISRDDSQSILYLQMNNLKTEDTAMYYCVRQSYGNSNYAMDYWGQGTTVTVSS
VL: DIQLTQSPPSVPVTPGESVSISCRSSKSLLHSNGNTYLYWFLQRPGQSPQLLIYRKSNLASGVPDRFSGSGSGTAFTLRISRVEAEDVGVYYCMQHLEYPFTFGGGTKLEIK
notes: Produced as IgG
B5: ADI-40306 (antibody, V domains shown)
VH: QVQLVESGGGVVQPGRSLRLSCAASGFTFSSYGMHWVRQAPGKGLEWVAVISYDGSNKYYAFSVKGRFTISRDNSKNTLYLQMNSLRVEDTAVYYCARVRRIAGRAGYGMDVWGQGTTVTVSS
VL: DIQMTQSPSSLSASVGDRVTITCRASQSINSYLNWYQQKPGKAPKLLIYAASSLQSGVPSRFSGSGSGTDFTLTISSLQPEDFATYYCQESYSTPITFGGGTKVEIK
B6: ADI-46663 (antibody, V domains shown)
VH: EVQLVESGGGLVQPGGSLRLSCAASGFTFNAYAMNWVRQAPGKGLEWVARIRSKSNNYATYYADSVKDRFTISRDDSKNSLYLQMNSLKTEDTAVYYCVRQSYGNSNYAMDYWGQGTTVTVSS
VL: DIVMTQSPLSLPVTPGEPASISCRSSKSLLHSNGNTYLYWYLQKPGQSPQLLIYRMSNLASGVPDRFSGSGSGTDFTLKISRVEAEDVGVYYCMQHLEYPFTFGGGTKVEIK

Tests used:
[1] = target: T1, human CCR8 (human, UniProt P51685 1-355); test: cell-based or functional assay
[2] = target: T1, human CCR8; test: cell-based or functional assay; remark: listed apart in the source
[3] = target: T1, human CCR8; test: flow cytometry on mammalian cells expressing human CCR8

T1 sequence (P51685 whole entry): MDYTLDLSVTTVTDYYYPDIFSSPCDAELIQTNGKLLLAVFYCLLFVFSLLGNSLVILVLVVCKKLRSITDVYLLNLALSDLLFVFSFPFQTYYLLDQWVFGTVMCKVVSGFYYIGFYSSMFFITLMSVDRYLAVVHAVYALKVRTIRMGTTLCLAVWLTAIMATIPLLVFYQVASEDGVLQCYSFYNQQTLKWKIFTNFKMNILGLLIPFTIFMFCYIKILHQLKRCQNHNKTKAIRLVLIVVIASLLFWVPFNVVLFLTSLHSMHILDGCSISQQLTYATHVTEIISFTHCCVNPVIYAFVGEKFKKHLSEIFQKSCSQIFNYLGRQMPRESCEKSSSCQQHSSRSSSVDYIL

| Binder | IC50 antagonism of EC80 Human CCL1 Gα15/16 Biosensor [1] [nM] | IC50 antagonism of EC80 Human CCL1 Gαz Biosensor [1] [nM] | EC50 of hCCR8-specific internalization [2] [mg/L] | MFI Fold over Background [3] [fold over background] |
| --- | --- | --- | --- | --- |
| B1 | 4.61 | 5.46 | 14.3 | – |
| B2 | 0.439 | 2.39 | 5.7 | – |
| B3 | 1.78 | 1.14 | 2.8 | – |
| B4 | – | – | – | 336 |
| B5 | 29.8 | 18.9 | – | – |
| B6 | 1.26 | 1.79 | – | – |

From patent US20250019449A1 (Memorial Sloan Kettering, published 2025)
